Test results as given in paper PMC2494536 (Cell, 2008).
Where two headings read alike, the source gives them in different places.

B1: kinase domain of wildtype chicken c-Src, residues 251-533 (domain or fragment, UniProt P00523 251-533, looked up)
chain: QTQGLAKDAWEIPRESLRLEVKLGQGCFGEVWMGTWNGTTRVAIKTLKPGTMSPEAFLQEAQVMKKLRHEKLVQLYAVVSEEPIYIVTEYMSKGSLLDFLKGEMGKYLRLPQLVDMAAQIASGMAYVERMNYVHRDLRAANILVGENLVCKVADFGLARLIEDNEYTARQGAKFPIKWTAPEAALYGRFTIKSDVWSFGILLTELTTKGRVPYPGMVNREVLDQVERGYRMPCPPECPESLHDLMCQCWRKDPEERPTFEYLQAFLEDYFTSTEPQYQPGENL
B2: kinase domain of Csk, residues 187-450 (domain or fragment, UniProt P41240 187-450, looked up)
chain: GWALNMKELKLLQTIGKGEFGDVMLGDYRGNKVAVKCIKNDATAQAFLAEASVMTQLRHSNLVQLLGVIVEEKGGLYIVTEYMAKGSLVDYLRSRGRSVLGGDCLLKFSLDVCEAMEYLEGNNFVHRDLAARNVLVSEDNVAKVSDFGLTKEASSTQDTGKLPVKWTAPEALREKKFSTKSDVWSFGILLWEIYSFGRVPYPRIPLKDVVPRVEKGYKMDAPDGCPPAVYEVMKNCWHLDAAMRPSFLQLREQLEHIKTHELHL

Legend:
Test in all cases: SPR
[1] = target: T1, full-length Csk (C-terminal Src Kinase), residues 1-450 (UniProt P41240 1-450)
[2] = target: T2, Csk construct lacking the SH3 domain (SH2 and kinase domains), residues 68-450 (UniProt P41240 68-450)
[3] = target: T1, full-length Csk (C-terminal Src …); remark: listed apart in the source
[4] = target: T2, Csk construct lacking the SH3 domain …; remark: listed apart in the source
[5] = target: B1

Row | Binder | Kd [1] [µM] | Kd [2] [µM] | Kd [3] [µM] | Kd [4] [µM] | Kd [5] [µM]
1 | B1 | ~4 | ~4 | ~30 | ~30 | 
2 | B2 |  |  |  |  | ~70
